The source of these data is patent US20140242084A1 (published 2014).

T1: occludin (UniProt Q16625 1-522, limits assumed)
T1 sequence (looked up): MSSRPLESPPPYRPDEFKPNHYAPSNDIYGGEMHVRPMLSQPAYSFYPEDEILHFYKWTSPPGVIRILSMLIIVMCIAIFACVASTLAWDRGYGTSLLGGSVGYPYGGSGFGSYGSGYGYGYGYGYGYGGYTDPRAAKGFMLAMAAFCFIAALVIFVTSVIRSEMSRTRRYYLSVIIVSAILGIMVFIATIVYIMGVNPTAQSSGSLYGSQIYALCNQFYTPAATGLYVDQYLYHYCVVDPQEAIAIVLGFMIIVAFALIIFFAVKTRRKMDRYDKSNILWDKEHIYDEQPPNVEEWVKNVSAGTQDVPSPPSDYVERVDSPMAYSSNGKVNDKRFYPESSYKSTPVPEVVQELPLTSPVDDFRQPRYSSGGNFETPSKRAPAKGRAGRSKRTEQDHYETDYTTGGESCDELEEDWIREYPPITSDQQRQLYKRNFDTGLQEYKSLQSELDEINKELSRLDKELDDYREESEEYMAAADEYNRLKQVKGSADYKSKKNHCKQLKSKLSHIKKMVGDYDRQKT

T2: VE-cadherin of primary human microvascular endothelial cells (HMVECs) (human, UniProt P33151 48-784)
T2 construct: whole, on cells; Endogenous protein, detected by in situ PLA and by co-immunoprecipitation
T2 sequence (looked up): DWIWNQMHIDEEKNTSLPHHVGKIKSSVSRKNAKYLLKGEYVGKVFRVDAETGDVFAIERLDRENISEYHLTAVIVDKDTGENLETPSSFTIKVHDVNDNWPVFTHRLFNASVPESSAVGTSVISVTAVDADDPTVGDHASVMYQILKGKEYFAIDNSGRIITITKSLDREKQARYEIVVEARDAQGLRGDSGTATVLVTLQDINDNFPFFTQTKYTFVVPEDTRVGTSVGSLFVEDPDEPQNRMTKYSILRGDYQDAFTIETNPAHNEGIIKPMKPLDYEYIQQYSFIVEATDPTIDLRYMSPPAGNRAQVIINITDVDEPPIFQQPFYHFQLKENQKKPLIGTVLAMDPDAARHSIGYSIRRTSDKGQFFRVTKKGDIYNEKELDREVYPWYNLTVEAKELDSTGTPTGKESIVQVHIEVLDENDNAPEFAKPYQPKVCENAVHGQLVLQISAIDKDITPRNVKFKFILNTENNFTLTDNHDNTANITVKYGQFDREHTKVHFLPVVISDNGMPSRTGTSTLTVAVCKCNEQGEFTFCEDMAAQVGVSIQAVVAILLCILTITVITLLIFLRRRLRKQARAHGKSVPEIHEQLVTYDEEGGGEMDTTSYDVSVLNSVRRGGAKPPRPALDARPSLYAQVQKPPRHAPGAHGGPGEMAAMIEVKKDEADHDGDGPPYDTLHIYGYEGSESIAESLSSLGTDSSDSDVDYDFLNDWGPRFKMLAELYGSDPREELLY

T3: VE-cadherin (SPR analyte) (UniProt P33151 48-599, limits assumed)
T3 sequence (looked up): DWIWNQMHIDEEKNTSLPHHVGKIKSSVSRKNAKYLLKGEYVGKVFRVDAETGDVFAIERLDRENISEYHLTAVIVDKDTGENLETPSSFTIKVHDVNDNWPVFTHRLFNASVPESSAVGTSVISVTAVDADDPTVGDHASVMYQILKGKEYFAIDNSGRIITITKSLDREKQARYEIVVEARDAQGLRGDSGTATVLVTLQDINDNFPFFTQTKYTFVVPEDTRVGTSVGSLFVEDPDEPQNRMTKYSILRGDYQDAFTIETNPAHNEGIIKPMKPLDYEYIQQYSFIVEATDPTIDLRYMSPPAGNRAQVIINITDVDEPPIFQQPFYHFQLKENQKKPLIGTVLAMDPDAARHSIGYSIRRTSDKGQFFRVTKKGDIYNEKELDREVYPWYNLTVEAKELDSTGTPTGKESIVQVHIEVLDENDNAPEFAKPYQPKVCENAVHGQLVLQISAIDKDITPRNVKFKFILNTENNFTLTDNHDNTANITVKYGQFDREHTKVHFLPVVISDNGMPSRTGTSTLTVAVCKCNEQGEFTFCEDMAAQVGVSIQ

T4: junction protein JAM-C (human, UniProt Q9BX67 32-310)
T4 construct: whole, on cells
T4 sequence (looked up): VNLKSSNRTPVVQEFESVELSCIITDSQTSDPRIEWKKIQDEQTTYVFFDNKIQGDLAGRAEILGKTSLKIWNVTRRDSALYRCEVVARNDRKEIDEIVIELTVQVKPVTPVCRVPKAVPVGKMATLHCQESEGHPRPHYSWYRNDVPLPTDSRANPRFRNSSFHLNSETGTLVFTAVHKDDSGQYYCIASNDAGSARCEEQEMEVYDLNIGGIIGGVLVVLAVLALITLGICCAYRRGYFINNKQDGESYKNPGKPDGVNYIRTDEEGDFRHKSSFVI

B1: claudin-5 of primary human microvascular endothelial cells (HMVECs) (other, UniProt O00501 1-218, looked up)
chain: MGSAALEILGLVLCLVGWGGLILACGLPMWQVTAFLDHNIVTAQTTWKGLWMSCVVQSTGHMQCKVYDSVLALSTEVQAARALTVSAVLLAFVALFVTLAGAQCTTCVAPGPAKARVALTGGVLYLFCGLLALVPLCWFANIVVREFYDPSVPVSQKYELGAALYIGWAATALLMVGGCLLCCGAWVCTGRPDLSFPVKYSAPRRPTATGDYDKKNYV
notes: whole, on cells; Endogenous protein, detected by in situ PLA and by co-immunoprecipitation
B2: VE-cadherin EC3 (other, UniProt P33151 259-372, looked up)
chain: TQTKYTFVVPEDTRVGTSVGSLFVEDPDEPQNRMTKYSILRGDYQDAFTIETNPAHNEGIIKPMKPLDYEYIQQYSFIVEATDPTIDLRYMSPPAGNRAQVIINITDVDEPPIF
notes: domain: EC3
B3: recombinant human cANGPTL4 (C-terminal region of angiopoietin-like 4) (ligand, UniProt Q9BY76 186-406, looked up)
chain: RDCQELFQVGERQSGLFEIQPQGSPPFLVNCKMTSDGGWTVIQRRHDGSVDFNRPWEAYKAGFGDPHGEFWLGLEKVHSITGDRNSRLAVQLRDWDGNAELLQFSVHLGGEDTAYSLQLTAPVAGQLGATTVPPSGLSVPFSTWDQDHDLRRDKNCAKSLSGGWWFGTCSHSNLNGQYFRSIPQQRQKLKKGIFWKTWRGRYYPLQATTMLIQPMAAEAAS
notes: domain: c terminal region; the tag is not specified; also called rh-cANGPTL4; rhcANGPTL4
B4: junctional adhesion molecule A (JAM-A) (other, UniProt Q9Y624 28-238, looked up)
chain: SVTVHSSEPEVRIPENNPVKLSCAYSGFSSPRVEWKFDQGDTTRLVCYNNKITASYEDRVTFLPTGITFKSVTREDTGTYTCMVSEEGGNSYGEVKVKLIVLVPPSKPTVNIPSSATIGNRAVLTCSEQDGSPPSEYTWFKDGIVMPTNPKSTRAFSNSSYVLNPTTGELVFDPLSASDTGEYSCEARNGYGTPMTSNAVRMEAVERNVGV

For assay [1], the target named is B3. The experiment in a line: figure legend: kinetic PLA and co-immunoprecipitation in HMVECs. Here is the method: Values (means±S.D.) represent mean fold change in the number of interactions compared to the zero time point, as determined from n=3 independent experiments (600 HMVECs) using BlobFinder. […] Protein lysates were collected every 10 minutes (0-180 minutes). Values below each band represent the mean fold change in protein expression level compared with the cognate zero time point (n=3). *, P<0.05; **, P<0.01.

Assay [2] addresses B3. In words: SPR, immobilised cANGPTL4 (FIG. 2B). How it is done:
(§1) SPR was carried out as previously described17,18 using a BIAcore 2000 system (BIAcore, Uppsala, Sweden). Six concentrations (0.16, 0.32, 0.63, 1.25, 2.50 and 5.0 μM) of recombinant integrin β1, first extracellular domain of VE-cadherin (ECD1), extracellular repeat 1 domain of VE-cadherin (EC1), occludin or JAM-A were used. Integrin was expressed in Drosophila S2 cells17 and various extracellular domains of VE-cadherin and claudin-5 purchased from Abnova. Global fitting of the SPR data was performed as previously described to determine the KD. Preinjection or preincubation with the indicated antibodies or preimmune IgG was performed to determine specific interactions. Each sensorgram was corrected by subtracting a sensorgram obtained from a reference flow cell with no immobilized protein. […] Values are mean±S.D. (n=3)
In general terms: SPR reads the build-up and loss of mass on a sensor chip optically.

In a further assay the target is T1, occludin. The experiment in a line: SPR, immobilised cANGPTL4. How it is done:
as §1

The target in the next assay is claudin-5 (SPR analyte) (UniProt O00501). The experiment in a line: SPR (BIAcore 2000), immobilised cANGPTL4, global fit.
For assay [3], the target named is recombinant integrin α5β1 (UniProt P08648). The assay is described as above.
Assay [4] addresses T5, integrin α5β1 of primary human microvascular endothelial cells (HMVECs) (human, UniProt P08648 42-1049; P05556 21-798).
T5 construct: whole, on cells; Endogenous protein, detected by in situ PLA and by co-immunoprecipitation from HMVEC lysates
The experiment in a line: in situ proximity ligation assay on ECs, 250 cells.

Assay [5] has as its target T2, VE-cadherin of primary human …. The experiment in a line: in situ proximity ligation assay on ECs, 250 cells.
The target of assay [6] is B1. In words: in situ proximity ligation assay on ECs, 250 cells.
Assay [7] concerns the target integrin β3 (control of the interaction analysis in paragraph 126) (UniProt P05106 27-718, limits assumed). The experiment in a line: SPR control (sentence also cites references 16, 17).
Assay [8] addresses T3, VE-cadherin (SPR analyte). In words: SPR (BIAcore 2000), immobilised cANGPTL4, global fit. How it is done: as §1
For the next assay, the target named is T6, Tie1 (human, UniProt P35590 22-1138).
T6 construct: whole, on cells
In words: co-immunoprecipitation with anti-cANGPTL4 from lysates of rh-cANGPTL4-treated HMVECs (FIG. 5B).

The target in another assay is T7, Tie2 (human, UniProt Q02763 23-1124).
T7 construct: whole, on cells
T7 sequence (Q02763 23-1124): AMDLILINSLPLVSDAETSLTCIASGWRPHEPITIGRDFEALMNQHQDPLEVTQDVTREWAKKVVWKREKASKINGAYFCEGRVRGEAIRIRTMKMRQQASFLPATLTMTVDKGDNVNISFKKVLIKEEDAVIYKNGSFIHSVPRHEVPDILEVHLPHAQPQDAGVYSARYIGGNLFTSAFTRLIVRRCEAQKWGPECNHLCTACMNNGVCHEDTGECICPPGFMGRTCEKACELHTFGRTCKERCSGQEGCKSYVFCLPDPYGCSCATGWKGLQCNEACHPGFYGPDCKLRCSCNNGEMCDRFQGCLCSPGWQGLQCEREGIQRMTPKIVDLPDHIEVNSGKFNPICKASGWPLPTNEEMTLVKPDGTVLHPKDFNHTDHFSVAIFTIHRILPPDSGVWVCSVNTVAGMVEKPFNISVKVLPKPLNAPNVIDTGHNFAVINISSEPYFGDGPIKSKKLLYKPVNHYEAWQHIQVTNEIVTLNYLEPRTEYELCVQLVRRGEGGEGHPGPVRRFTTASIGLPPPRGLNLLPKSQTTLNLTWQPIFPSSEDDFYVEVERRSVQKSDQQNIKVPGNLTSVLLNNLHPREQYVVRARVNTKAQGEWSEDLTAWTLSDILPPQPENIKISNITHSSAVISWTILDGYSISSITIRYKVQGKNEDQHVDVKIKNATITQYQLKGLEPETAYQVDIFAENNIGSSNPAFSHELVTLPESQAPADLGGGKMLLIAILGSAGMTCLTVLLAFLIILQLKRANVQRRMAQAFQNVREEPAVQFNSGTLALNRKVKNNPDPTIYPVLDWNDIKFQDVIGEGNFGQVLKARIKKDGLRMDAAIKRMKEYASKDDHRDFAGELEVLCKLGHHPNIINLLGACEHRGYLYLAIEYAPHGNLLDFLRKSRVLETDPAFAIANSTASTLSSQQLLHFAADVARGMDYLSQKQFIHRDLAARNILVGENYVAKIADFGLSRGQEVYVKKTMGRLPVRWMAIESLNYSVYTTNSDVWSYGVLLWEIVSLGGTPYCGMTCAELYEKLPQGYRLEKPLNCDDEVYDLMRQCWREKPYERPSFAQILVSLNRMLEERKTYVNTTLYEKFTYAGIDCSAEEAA
The assay is described as above.

The next assay concerns the target T8, integrin β3 of HMVECs (human, UniProt P05106 27-788).
T8 construct: whole, on cells
The assay is described as above.

A further assay concerns the target T4, junction protein JAM-C. Described as above.
The target of assay [9] is T2, VE-cadherin of primary human …. The experiment in a line: kinetic PLA in HMVECs in the presence of anti-integrin antibody, against the zero time point (FIG. 4C). How it is done:
(§2) (A, B and D, E) Immunofluorescence staining for ZO-1 (A, D) and transendothelial electrical resistance (TER) measurement (B, E) in confluent HMVEC monolayer. […] Treatments were for 3 or 6 h. HMVECs were counterstained with DAPI (blue) for nuclei and phalloidin (red) for actin stress fibers. Scale bar: 40 μm. White arrows indicate endothelial junction lesions. Data (means±S.D.) from 3 independent experiments. *, P<0.05; **, P<0.01. […] Values (means±S.D.) represent mean fold change in the number of interactions compared to the zero time point, as determined from n=3 independent experiments (˜600 HMVECs) using BlobFinder.

Assay [10] deals with B1. The description is as above. Here is the method:
as §2

Assay [11] deals with B3. In words: SPR, immobilised cANGPTL4. How it is done:
as §1

T8 sequence (P05106 27-788): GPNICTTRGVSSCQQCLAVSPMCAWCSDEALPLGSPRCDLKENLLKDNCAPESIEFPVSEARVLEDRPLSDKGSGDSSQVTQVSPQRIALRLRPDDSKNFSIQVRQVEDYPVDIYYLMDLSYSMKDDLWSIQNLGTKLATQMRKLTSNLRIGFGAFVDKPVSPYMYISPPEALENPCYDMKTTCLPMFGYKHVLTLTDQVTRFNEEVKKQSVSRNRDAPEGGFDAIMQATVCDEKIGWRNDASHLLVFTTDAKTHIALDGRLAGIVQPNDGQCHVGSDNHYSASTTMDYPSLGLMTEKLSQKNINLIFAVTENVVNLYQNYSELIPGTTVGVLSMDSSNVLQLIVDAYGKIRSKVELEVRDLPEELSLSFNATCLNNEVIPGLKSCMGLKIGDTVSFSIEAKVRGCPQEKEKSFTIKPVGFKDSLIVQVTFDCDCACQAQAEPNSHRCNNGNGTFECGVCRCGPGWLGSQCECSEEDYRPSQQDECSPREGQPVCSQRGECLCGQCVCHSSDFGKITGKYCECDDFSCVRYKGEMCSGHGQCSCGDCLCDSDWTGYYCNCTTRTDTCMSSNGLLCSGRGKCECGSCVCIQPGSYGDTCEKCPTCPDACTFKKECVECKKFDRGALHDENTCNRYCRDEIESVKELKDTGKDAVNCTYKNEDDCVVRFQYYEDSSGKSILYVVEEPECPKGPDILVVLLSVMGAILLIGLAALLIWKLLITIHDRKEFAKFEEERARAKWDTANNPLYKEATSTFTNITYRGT
integrin β3 (control of the interaction analysis in paragraph 126), sequence (P05106 27-718 limits assumed): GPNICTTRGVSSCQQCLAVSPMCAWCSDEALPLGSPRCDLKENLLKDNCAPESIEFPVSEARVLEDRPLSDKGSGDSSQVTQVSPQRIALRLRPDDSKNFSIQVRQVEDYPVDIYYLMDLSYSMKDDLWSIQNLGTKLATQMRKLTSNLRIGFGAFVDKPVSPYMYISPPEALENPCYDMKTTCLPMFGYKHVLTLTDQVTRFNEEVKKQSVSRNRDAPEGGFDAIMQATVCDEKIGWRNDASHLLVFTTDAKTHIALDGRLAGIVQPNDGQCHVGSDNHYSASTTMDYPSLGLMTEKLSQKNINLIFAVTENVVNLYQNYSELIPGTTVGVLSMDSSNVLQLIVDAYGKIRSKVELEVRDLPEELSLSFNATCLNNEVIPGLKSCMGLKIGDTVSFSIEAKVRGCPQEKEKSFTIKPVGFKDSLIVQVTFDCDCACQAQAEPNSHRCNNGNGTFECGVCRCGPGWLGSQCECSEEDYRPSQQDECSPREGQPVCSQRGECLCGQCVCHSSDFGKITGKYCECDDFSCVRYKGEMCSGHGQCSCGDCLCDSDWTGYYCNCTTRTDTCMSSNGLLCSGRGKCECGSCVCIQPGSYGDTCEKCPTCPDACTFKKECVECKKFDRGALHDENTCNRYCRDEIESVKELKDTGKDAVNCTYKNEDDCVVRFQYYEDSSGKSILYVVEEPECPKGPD
T5 sequence (P08648 42-1049, chain 1 of 2): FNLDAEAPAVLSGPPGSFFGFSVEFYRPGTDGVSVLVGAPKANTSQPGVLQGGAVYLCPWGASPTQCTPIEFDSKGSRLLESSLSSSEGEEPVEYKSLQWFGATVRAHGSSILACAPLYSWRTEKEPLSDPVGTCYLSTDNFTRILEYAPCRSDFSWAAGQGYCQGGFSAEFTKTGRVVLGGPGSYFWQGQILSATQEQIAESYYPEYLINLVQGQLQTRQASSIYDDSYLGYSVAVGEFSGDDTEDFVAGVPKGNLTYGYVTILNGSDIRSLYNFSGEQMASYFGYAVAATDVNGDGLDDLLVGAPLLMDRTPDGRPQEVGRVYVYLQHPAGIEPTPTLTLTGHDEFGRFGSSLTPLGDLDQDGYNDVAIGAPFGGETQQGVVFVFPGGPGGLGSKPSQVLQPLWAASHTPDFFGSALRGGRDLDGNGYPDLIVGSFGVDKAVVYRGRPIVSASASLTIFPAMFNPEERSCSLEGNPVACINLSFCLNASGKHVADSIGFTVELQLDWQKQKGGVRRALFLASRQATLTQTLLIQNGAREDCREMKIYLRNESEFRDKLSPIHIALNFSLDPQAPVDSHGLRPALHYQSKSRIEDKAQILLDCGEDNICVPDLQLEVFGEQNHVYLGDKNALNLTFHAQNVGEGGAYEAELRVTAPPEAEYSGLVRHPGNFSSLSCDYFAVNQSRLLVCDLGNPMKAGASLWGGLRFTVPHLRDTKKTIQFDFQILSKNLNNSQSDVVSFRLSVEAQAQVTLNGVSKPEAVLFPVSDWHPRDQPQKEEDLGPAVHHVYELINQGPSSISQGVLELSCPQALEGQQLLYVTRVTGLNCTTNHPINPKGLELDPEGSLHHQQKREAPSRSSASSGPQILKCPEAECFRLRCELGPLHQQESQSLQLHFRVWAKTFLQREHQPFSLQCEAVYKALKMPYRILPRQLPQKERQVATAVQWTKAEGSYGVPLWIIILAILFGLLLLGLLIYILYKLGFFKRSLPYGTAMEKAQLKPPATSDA
T5 sequence (P05556 21-798, chain 2 of 2): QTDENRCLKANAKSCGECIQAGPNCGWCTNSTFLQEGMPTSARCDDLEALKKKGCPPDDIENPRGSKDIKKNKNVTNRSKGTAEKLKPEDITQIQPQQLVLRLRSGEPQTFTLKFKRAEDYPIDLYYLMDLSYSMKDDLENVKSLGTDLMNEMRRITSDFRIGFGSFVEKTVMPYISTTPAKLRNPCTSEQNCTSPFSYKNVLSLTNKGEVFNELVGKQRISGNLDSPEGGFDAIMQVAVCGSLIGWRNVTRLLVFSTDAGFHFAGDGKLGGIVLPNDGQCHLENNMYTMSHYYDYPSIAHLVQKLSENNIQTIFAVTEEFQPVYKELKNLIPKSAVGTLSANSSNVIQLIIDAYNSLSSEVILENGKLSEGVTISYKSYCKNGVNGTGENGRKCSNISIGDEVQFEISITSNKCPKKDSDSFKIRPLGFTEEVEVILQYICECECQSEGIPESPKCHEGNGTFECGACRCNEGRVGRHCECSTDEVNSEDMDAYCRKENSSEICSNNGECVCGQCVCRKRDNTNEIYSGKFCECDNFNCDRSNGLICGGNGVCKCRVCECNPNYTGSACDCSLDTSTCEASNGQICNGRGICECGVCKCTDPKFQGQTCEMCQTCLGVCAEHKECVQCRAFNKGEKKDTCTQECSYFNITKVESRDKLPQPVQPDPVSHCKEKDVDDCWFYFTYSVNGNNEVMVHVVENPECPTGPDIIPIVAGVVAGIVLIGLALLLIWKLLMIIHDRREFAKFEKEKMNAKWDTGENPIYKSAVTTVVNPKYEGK

As to B1, in assay [1], the binding result is on record as “binds”.
As for B2, the binding result in [2] is “no binding”.
Broadly, the Kd is a measure of binding affinity in units of concentration. With B3, the binding result with occludin is “no binding (tested: 0.16-5.0 µM)”; in assay [7] it was “no binding”; with Tie1, “no binding”; with Tie2, “no binding”; with integrin β3 of HMVECs it was “no binding”; with junction protein JAM-C, “no binding”. The equilibrium dissociation constant (Kd) with claudin-5 (SPR analyte) came to 58.7 nM; in [3] it was 12.6 nM; in assay [8] it was 112 nM. In addition, the values for the PLA spots/cell in [4], in assay [5] and in [6] were 22.5 PLA spots/cell, 16.4 PLA spots/cell and 12.3 PLA spots/cell, respectively. The “mean fold change in the interactions” value in [9] and in [10] was 0.4 fold throughout.
As to B4, in assay [11], the binding result is given as “no binding (tested: 0.16-5.0 µM)”.
